Measurements taken from patent publication US20210299331A1, “PLURIPOTENT STEM CELL-DERIVED PLATE-SHAPED CARTILAGE AND METHOD FOR PRODUCING THE SAME” (KYOTO UNIVERSITY, priority 2018, published 2021).

Columns and labels:
[1] = tested on: human iPS cell line QHJI-derived cartilaginous particles; experiment: In vitro integration of paired cartilaginous particles in round-bottom 96-well plate, cultured with FGFR inhibitor; type: cell-based
Method: (§1) Two cartilaginous particles were put into a well of a round-bottom 96-well plate (see FIGS. 1A and 1B) and cultured under the conditions of 37° C. and 5% CO2 in chondrogenic medium (DMEM (Sigma) with 1% ITS, 1% FBS, 2 mM L-glutamine (Thermo), 1×10^−4 M non-essential amino acids (Thermo), 1 mM sodium pyruvate (Thermo), 50 U of penicillin, […] streptomycin, 50 μg/mL ascorbic acid (Nacalai), 10 ng/mL BMP2 (Peprotech), 10 ng/mL TGFβ1 (Peprotech), and 10 ng/mL GDF5 (PTT)). In total, 84 wells, each of which contained a pair of cartilaginous particles, were prepared. The wells were divided into 7 groups (12 pairs per group), and each was subjected to macroscopic and histological analyses at the predetermined time points ([…] after the start of the integration experiment). The medium was changed every day gently and carefully so as not to change the positions of the cartilaginous particles.
To further investigate the effects of FGF on the integration, an FGFR inhibitor, NVP-BGJ398 (ChemScene LLC), was used in the culture. NVP-BGJ398 was dissolved in DMSO to prepare a 50 μM stock solution. In total, 30 new pairs of cartilaginous particles were cultured under the conditions described in the above (3). Fifteen pairs were cultured in a medium supplemented with vehicle (0.3 μL of DMSO), and the other 15 pairs were cultured in a medium supplemented with 0.3 μL of the NVP-BGJ398 stock solution (final concentration: 50 nM). After 14 days of culture, the samples were subjected to histological analysis.
(§2) The pairs of cartilaginous particles were fixed with 4% paraformaldehyde, processed, and embedded in paraffin. 20 to 150 serial sections were prepared around the integrated portion of the sample so that the sections contain the most contact area between the paired cartilaginous particles (see FIG. 1C). Serial sections with the greatest contact portion were selected and used for further analysis. The sections were stained with hematoxylin-eosin and safranin O-fast green-iron hematoxylin and immunostained with a goat anti-type I collagen antibody (Souther Biotech) and an anti-type II collagen antibody (Thermo).
(§3) For statistical analysis, the degree of integration of cartilaginous particles at each time point was graded as follows: grade 0, no integration; grade 1, perichondrium-like membrane integration; grade 2, cartilage integration (Table 2). The grades are non-parametric data, and statistical analysis was performed using the Steel-Dwass test. All the samples were graded as 0 (no integration) on day 0 and graded as 2 (cartilage integration) on day 56.

[2] = tested on: human iPS cell line QHJI-derived cartilaginous particles; experiment: In vitro integration of paired cartilaginous particles in round-bottom 96-well plate, cultured with FGF18; type: cell-based; conditions: for Grade 0 No integration (number of pairs) / Grade 1 Integration by perichondrium-like membrane (number of pairs) / Grade2 Integration by cartilage (number of pairs): 15 pairs per group
Method: as §1
Recombinant human FGF18 (PeproTech) was dissolved in phosphate-buffered saline (PBS) to prepare a stock solution (100 μg/mL). In total, 90 pairs of cartilaginous particles were cultured under the conditions described in the above (3). One pair per well was cultured in 0.3 mL of medium. Forty-five pairs were cultured in a medium supplemented with vehicle (0.3 μL of PBS), and the other 45 pairs were cultured in a medium supplemented with 0.3 μL of the FGF18 stock solution (final concentration: 100 ng/mL). The 45 pairs in each treatment group were further separated into three equal-sized groups and subjected to histological analysis (3, 7, or 14 days after the start of the experiment).
as §2, §3

[3] = Day 14, NVP-BGJ398 50 nM, 15 pairs per group, P < 0.01 vs Vehicle (Steel-Dwass)
[4] = Day 14, FGF18 100 ng/mL, P < 0.01 vs Vehicle (Steel-Dwass)

Molecule | Grade 0 No integration (number of pairs) [1, 3] | Grade 1 Integration by perichondrium-like membrane (number of pairs) [1, 3] | Grade2 Integration by cartilage (number of pairs) [1, 3] | Pairs of cartilaginous particles that showed integration ([1]; Day 14, NVP-BGJ398 50 nM, 15 pairs, vehicle 11 out of 15) | Effect of addition to the medium on integration of cartilaginous particles ([1]; NVP-BGJ398 50 nM in medium) | Grade 0 No integration (number of pairs) ([2]; Day 3, FGF18 100 ng/mL) | Grade 1 Integration by perichondrium-like membrane (number of pairs) ([2]; Day 3, FGF18 100 ng/mL) | Grade2 Integration by cartilage (number of pairs) ([2]; Day 3, FGF18 100 ng/mL) | Grade 0 No integration (number of pairs) ([2]; Day 7, FGF18 100 ng/mL) | Grade 1 Integration by perichondrium-like membrane (number of pairs) ([2]; Day 7, FGF18 100 ng/mL) | Grade2 Integration by cartilage (number of pairs) ([2]; Day 7, FGF18 100 ng/mL) | Grade 0 No integration (number of pairs) [2, 4] | Grade 1 Integration by perichondrium-like membrane (number of pairs) [2, 4] | Grade2 Integration by cartilage (number of pairs) [2, 4] | Integration of treated cartilaginous particles (observation) ([2]; Day 14, FGF18 100 ng/mL, vehicle showed minimal integration) | Integration grade versus vehicle-treated pairs (statistics) ([2]; Day 14, Steel-Dwass test) | Effect of addition to the medium on integration of cartilaginous particles ([2]; FGF18 100 ng/mL in medium) | Histological finding in treated cartilaginous particles ([2]; FGF18 100 ng/mL, safranin O-fast green-iron hematoxylin sections)
CCN1CCN(c2ccc(Nc3cc(N(C)C(=O)Nc4c(Cl)c(OC)cc(OC)c4Cl)ncn3)cc2)CC1 [NVP-BGJ398] | 15 | 0 | 0 | no pairs | inhibited the integration of cartilaginous particles |  |  |  |  |  |  |  |  |  |  |  |  | 
FGF18: Recombinant human FGF18 (PeproTech), an FGF receptor agonist added to the culture medium (protein, UniProt O76093 28-207, looked up) Fibroblast growth factor 18: EENVDFRIHVENQTRARDDVSRKQLRLYQLYSRTSGKHIQVLGRRISARGEDGDKYAQLLVETDTFGSQVRIKGKETEFYLCMNRKGKLVGKPDGTSKECVFIEKVLENNYTALMSAKYSGWYVGFTKKGRPRKGPKTRENQQDVHFMKRYPKGQPELQKPFKYTTVTKRSRRIRPTHPA |  |  |  |  |  | 12 | 3 | 0 | 10 | 5 | 0 | 1 | 14 | 0 | substantial integration | Significant difference | accelerated the integration of cartilaginous particles | thick connection of the perichondrium-like membranes
